The assay concerns the target T1, Med15 (residues 1-651 Δ239-271, Δ373-483), mediator component (yeast, UniProt P19659 1-651, Δ239–271 | Δ373–483).
T1 sequence (looked up): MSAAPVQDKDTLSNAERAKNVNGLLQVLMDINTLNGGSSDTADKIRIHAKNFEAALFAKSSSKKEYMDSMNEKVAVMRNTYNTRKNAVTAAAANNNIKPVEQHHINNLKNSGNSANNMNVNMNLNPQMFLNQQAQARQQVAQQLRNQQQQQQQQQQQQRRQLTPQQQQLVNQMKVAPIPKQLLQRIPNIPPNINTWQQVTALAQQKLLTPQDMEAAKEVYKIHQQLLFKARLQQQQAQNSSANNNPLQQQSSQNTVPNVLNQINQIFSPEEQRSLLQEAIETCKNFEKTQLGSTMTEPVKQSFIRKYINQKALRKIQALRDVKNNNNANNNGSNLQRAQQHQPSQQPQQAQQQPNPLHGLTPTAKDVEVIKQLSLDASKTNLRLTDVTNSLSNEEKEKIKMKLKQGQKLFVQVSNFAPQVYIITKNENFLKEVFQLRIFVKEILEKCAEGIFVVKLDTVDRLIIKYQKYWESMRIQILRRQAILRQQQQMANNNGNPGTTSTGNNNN
The assay can be described thus: BLI. In general terms: Biolayer interferometry detects binding as a change in optical thickness at a sensor tip.

B1: Met4 (residues 76 to 160), containing both the UIM and the UIML domains (tandem UBD) (domain or fragment, yeast, UniProt P32389 76-160, looked up)
chain: GNTNLYDHAVTPEILLEQLAYVDNFIPSLDNEFSNVDWNVNTTHNNANNNGADTFSSINANPFDLDEQLAIELSAFADDSFIFPD
modifications: biotin on the Avi tag (BirA)
A word on the Kd: it is the constant that tells how readily two partners part at equilibrium. A higher Kd goes with lower affinity. In turn, B1 came in with a Kd of 100 nM.
